The source of these data is publication doi:10.1101/2023.09.21.558905.

T1: GUN1 (132-918) (Arabidopsis thaliana, UniProt Q9SIC9 132-918)
T1 sequence: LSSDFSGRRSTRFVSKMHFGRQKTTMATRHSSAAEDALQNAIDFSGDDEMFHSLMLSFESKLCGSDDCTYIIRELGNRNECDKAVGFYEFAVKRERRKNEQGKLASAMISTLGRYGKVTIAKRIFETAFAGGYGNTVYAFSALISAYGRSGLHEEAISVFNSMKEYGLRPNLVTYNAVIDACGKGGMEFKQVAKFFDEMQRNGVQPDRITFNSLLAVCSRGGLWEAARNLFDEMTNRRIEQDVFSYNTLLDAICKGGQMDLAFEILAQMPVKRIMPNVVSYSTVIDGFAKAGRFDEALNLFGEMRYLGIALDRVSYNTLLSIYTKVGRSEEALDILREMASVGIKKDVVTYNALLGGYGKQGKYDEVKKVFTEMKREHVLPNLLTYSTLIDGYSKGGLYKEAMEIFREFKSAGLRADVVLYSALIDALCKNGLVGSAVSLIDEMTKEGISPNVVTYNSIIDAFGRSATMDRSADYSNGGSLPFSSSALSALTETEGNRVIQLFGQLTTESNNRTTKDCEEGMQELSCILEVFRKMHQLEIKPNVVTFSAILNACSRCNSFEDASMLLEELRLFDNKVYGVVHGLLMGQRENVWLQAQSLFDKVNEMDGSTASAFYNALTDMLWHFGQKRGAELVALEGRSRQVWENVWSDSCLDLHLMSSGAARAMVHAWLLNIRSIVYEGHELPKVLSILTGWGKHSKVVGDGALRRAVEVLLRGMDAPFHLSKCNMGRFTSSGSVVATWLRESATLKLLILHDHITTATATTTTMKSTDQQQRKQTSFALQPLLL

B1: RNA2 (ssRNA)
RNA: GGACCUCCUUCUCUAUCUCU
B2: RNA1 (psbD BLRP 5'-UTR) (ssRNA)
RNA: GGAAAUCCGUCGAUAUCUCU
B3: RNA3 (ssRNA)
RNA: GGACCGAAUGAUCUAUCUCU

For the data set, the target named is T1, GUN1 (132-918). Kind of data set: EMSA.
On to B1, for which the binding result is recorded as “no binding”.
Regarding B2, the binding result was “binds”.
Regarding B3, the binding result was “no binding”.
